Laboratory results as given in patent publication US20220054630A1 (UNIVERSITY OF MARYLAND COLLEGE PARK, published 2022).
Numbering of substitutions follows the chain as printed. Names and notes keep the numbering of the source.

B1: sE2 design H445P (other)
chain: ETHVTGGSAGRTTAGLVGLLTPGAKQNIQLINTNGSWHINSTALNCNESLNTGWLAGLFYQPKFNSSGCPERLASCRRLTDFAQGWGPISYANGSGLDERPYCWHYPPRPCGIVPAKSVCGPVYCFTPSPVVVGTTDRSGAPTYSWGANDTDVFVLNNTRPPLGNWFGCTWMNSTGFTKVCGAPPCVIGGVGNNTLLCPTDCFRKHPEATYSRCGSGPWITPRCMVDYPYRLWHYPCTINYTIFKVRMYVGGVEHRLEAACNWTRGERCDLEDRDRSE
B2: sE2 design Y632NS (Y632N-G634S) (other)
chain: B1 chain with P62H, Y249N, G251S
B3: wild-type soluble E2 (sE2), HCV isolate H77C, residues 384-661 (other)
chain: B1 chain with P62H
B4: sE2 design Triple (ΔHVR1-H445P-Y632NS) (other)
chain: KQNIQLINTNGSWHINSTALNCNESLNTGWLAGLFYQPKFNSSGCPERLASCRRLTDFAQGWGPISYANGSGLDERPYCWHYPPRPCGIVPAKSVCGPVYCFTPSPVVVGTTDRSGAPTYSWGANDTDVFVLNNTRPPLGNWFGCTWMNSTGFTKVCGAPPCVIGGVGNNTLLCPTDCFRKHPEATYSRCGSGPWITPRCMVDYPYRLWHYPCTINYTIFKVRMNVSGVEHRLEAACNWTRGERCDLEDRDRSE

Biological target: T1, CD81 large extracellular loop (LEL) (UniProt P60033 113-201)
T1 construct: domain: large extracellular loop (LEL); not shown: C-terminal twin Strep tag
T1 sequence: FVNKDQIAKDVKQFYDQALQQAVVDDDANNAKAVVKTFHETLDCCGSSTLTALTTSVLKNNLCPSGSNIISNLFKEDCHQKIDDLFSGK
Experiment: BLI (Octet RED96), His6-tagged sE2 on Ni-NTA biosensors, CD81-LEL in solution

Binder	binding result
B1	binds
B2	binds
B3	binds
B4	binds
